Experiment: yeast display, Sf9 membrane polyspecificity reagent, FACS + sequencing; frameworks hold sequencing errors
Outline: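 Genes from sorted yeast were amplified by colony PCR, read by MiSeq 2 × 250 sequencing and filtered on CDR length. These cells carried a synthetic nanobody library in Saccharomyces cerevisiae BJ5465 and were sorted by FACS into low and high (top ~1%) gates on anti-HA and streptavidin fluorescence. Polyreactivity is labelled according to the gate of origin.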

Sequence	polyreactivity (PSR sort gate)
QVQLVESGGGLVQAGGSLRLSCAASGRTFYLYAMGWYRQAPGKERELVAAITSGGSTYYADSVKGRFTISRDNAKNTVYLQMNSLKPEDTAVYYCAKRPVSVGYGYPRVSWGYDYWGQGTQVTVSS	high polyreactivity
QVQLVESGGGLVQAGGSLRLSCAASGRTFYLYGMGWYRQAPGKERELVAAITLSDGSTYYADSVKGRFTISRDNAKNTVYLQMKSLKPEDTAVYYCAARDYPFPYAMNYWGQGTQVTVSS	low polyreactivity
QVQLVESGGGLVQAGGSLRLSCAASGRTFYLYTMGWYIQAPGKERELVAAISRGGRTYADSVKGRFTISRDNAKNTVYLQMNSLKPEDTAVYYCAAESVYHGWSYQHGKGDYWGQGTQVTVSS	low polyreactivity
QVQLVESGGGLVQAGGSLRLSCAASGRTFYNAMGWYRQAPGKERELVAAITTGGGTKYADSVKGRFTISRDNAKNTVYLQMNSLKPEDTAVYYCNAYRQYRYDYWGQGTQVTVSS	low polyreactivity
QVQLVESGGGLVQAGGSLRLSCAASGRTFYNYAMGWYRQAPGKERELVATITGRGGRTFYADSVKGRFTISRDNAKNTVYLQMNSLKPEDTAVYYCDAYRSASPYYTLYVEHDYWGQGTQVTVSS	low polyreactivity
QVQLVESGGGLVQAGGSLRLSCAASGRTFYPNAMGWYRQAPGKERELVAAISLSGTRTNYADSVKGRFTISRDNAKNTVYLQMNSLKPEDTAVYYCAARYGNFDGRNYYWGQGTQVTVSS	high polyreactivity
QVQLVESGGGLVQAGGSLRLSCAASGRTFYPYAMGWYRKAPGKERELVAAITSDGSTNYADSVKGRFTISRDNAKNTVYLQMNSLKPEDTAVYYCATAGYSWVSYDYWGQGTQVTVSS	low polyreactivity
QVQLVESGGGLVQAGGSLRLSCAASGRTFYPYAMGWYRQAPGKERELVARISASGGSTYYADSVKGRFTISRDNAKNTVYLQMNSLKPEDTAVYYCARESFWRSLMDYWGQGTQVTVSS	high polyreactivity
QVQLVESGGGLVQAGGSLRLSCAASGRTFYQYAMGWYRQAPGKERELVAAISRRGGTTYYADSVKGRFTISRDNAKNTVYLQMNSLKPEDTAVYYCAASSLPAGEMYYWGQGTQVTVSS	high polyreactivity
QVQLVESGGGLVQAGGSLRLSCAASGRTFYQYDMGWYRQAPGKERDLVAAIDWSGGSTYYADSVKGRFTISRDNAKNTVYLQMNSLKPEDTAVYYCNADAYPHPVVGYDYWGQGTQVTVSS	low polyreactivity
QVQLVESGGGLVQAGGSLRLSCAASGRTFYQYDMGWYRQEPGKERAFVADIDWSGGSTYYADSVKGRFTISRDNAKNTVYLQMNSLKPEDTAVYYCNADAYPHPVVGYDYWGQGTQVTVSS	low polyreactivity
QVQLVESGGGLVQAGGSLRLSCAASGRTFYRNAMGWYRQAPGKERELVAAISQRGGRTYYADSVKGRFTISRDNAKNSVYLQMNSLKPEDTAVYYCAASPIYPVYRRHGYWGQGTQVTVSS	high polyreactivity
QVQLVESGGGLVQAGGSLRLSCAASGRTFYRNAMGWYRQAPGKERELVAAISSGGSTTYADSVKGRFTISRDNAKNTVYLQMNSLKPEDTAVYYCAARSHAGSVSPRLKEYDYWGQGTQVTVSS	low polyreactivity
QVQLVESGGGLVQAGGSLRLSCAASGRTFYRNAMGWYRQAPGKERELVAAISWSGGRTFYADSVKGRFTISRDNAKNTVYLQMNSLKPEDTAVYYCAKTYTTPGYYRYDYWGQGTQVTVSS	high polyreactivity
QVQLVESGGGLVQAGGSLRLSCAASGRTFYRNAMGWYRQAPGKERELVAAITSSGASTYYADSVKGRFTISRDNAKNTVYLQMNSLKPEDTAVYYCAAKYVYSVGNYRYDYWGQGTQVTVSS	low polyreactivity
QVQLVESGGGLVQAGGSLRLSCAASGRTFYRNAMGWYRQAPGKERELVATLNSGGSTHYADSVKGRFTISRDNAKNTVYLQMNSLKPEDTAVYYCAARSPSYRGSLSYYWGQGTQVTVSS	high polyreactivity
QVQLVESGGGLVQAGGSLRLSCAASGRTFYRNARGWYRQAPGKERELVAVISSSGVRTYYADSVKGRFTISRDNAKNTVYLQRNSQKPEDTAVYYCAADSNSYYRGFDYWGQGTQVTVSS	high polyreactivity
QVQLVESGGGLVQAGGSLRLSCAASGRTFYRNVMGWYRQAPGKVRELVAVITSGGRTNYADSVKGRFTISRDNAKNTVYLQMNSLKPEDTAVYSCNTALSSRSNKMYYWGQGTQVTVSS	high polyreactivity
QVQLVESGGGLVQAGGSLRLSCAASGRTFYRYAMGCYRQAPGKERELVAAISWRGGSTNYADSVKGRFTISRDNAKNTVYLQMNSLKPEDTAVYYCNAKFFLPATTRYYYWGQGTQVTVSS	high polyreactivity
QVQLVESGGGLVQAGGSLRLSCAASGRTFYRYAMGWYRQAPGKERELVAAITASGGSTYYADSVKGRFTISRDNAKNTVYLQMNSLKPEDTAVYYCAKGGKSRYSTWHGDYWGQGTQVTVSS	high polyreactivity
QVQLVESGGGLVQAGGSLRLSCAASGRTFYRYAMGWYRQAPGKERELVAAITWSGGSTYYADSVKGRFTTSRDNAKNTVYLQMNSLKPEDTAVYYCAADAALITYYGWADMYYWGQGTQVTVSS	low polyreactivity
QVQLVESGGGLVQAGGSLRLSCAASGRTFYRYAMGWYRQAPGKERELVARIRSGGSTNYADSVKGRFTISRDNAKNTVYLQMNSLKPEDTAVYYCAVDDAYPDRYDYWGQGTQVTVSS	high polyreactivity

Sequence	polyreactivity (PSR sort gate)
QVQLVESGGGLVQAGGSLRLSCAASGRTFYRYAMGWYRQAPGKEREYVASITRGGGITYYADSVKGRFTISRDNAKNTVYLQMNSLKPEDSAVYYCAARQYGPRYTFYYWGQGTQVTVSS	high polyreactivity
QVQLVESGGGLVQAGGSLRLSCAASGRTFYRYTMGWYRQAPGKERQLVAGISWRGGTTYYADSVKGRFTISRDNAKNTVYLQMNSLKPEDTAVYYCAAKAGYRYGSLAYYKYDYWGLGTQVTVSS	high polyreactivity
QVQLVESGGGLVQAGGSLRLSCAASGRTFYSNAMGWYRESPGKERELVAAISRSGGTTYYADSVKGRFTISRDHAKNTVSLLMNSLKPEDTAVYYCNTLRYGTTGKYDYWGQGTQVTVSS	high polyreactivity
QVQLVESGGGLVQAGGSLRLSCAASGRTFYSNAMGWYRQAPGKERELVAAISYRGGRTYYADSVKGRFTISRDNAKNTVYLQMNSLKPEDTAVYYSAADAYVLFYGDWYECDYWGQGTQVTVSS	high polyreactivity
QVQLVESGGGLVQAGGSLRLSCAASGRTFYSNAMGWYRQPPGKERELVAAIRRSGGSTYYADSVKGRFTISRDNAKNTVYLQMNSLKPEDTAVYYCNAPHHRYDWGQGTQVTVSS	high polyreactivity
QVQLVESGGGLVQAGGSLRLSCAASGRTFYSYAMGGYRQAPGKERELVARITWSGGTYYADSVKGRFTISRDNAKNTVYLQMNSLKPEDTAVYYCAAKYWKWYHYGFGYWGQGTQVTVSS	high polyreactivity
QVQLVESGGGLVQAGGSLRLSCAASGRTFYSYAMGWYRQAPGKEREFVAAISVRGVITYYADSVKGRFTISRDNAKNTVYLQMNSLKPEDTAVYDCAADWSGYYTYDYWGQGTQVTVSS	low polyreactivity
QVQLVESGGGLVQAGGSLRLSCAASGRTFYSYAMGWYRQAPGKERELVAAISRGGNTYYADSVKGRFTISRDNAKNTVYLQMNSLKPEDTAVYYCAVVRVTYYASIYHRGYDYWGQGTQVTVSS	low polyreactivity
QVQLVESGGGLVQAGGSLRLSCAASGRTFYSYAMGWYRQAPGKERELVAAITWRGVRTYYADSVKGRFTISRDNAKNTVYLQMNSLKPEDTAVYYCAAGGVRTRSWDTSLINRYGYWGQGTQVTVSS	high polyreactivity
QVQLVESGGGLVQAGGSLRLSCAASGRTFYSYAMGWYRQAPGKERELVASISSSGASTYYADSVKGRFTISRDNAKNTVYLQMNSLKPEDTAVYYCNAVWRTSFITIYGFDYWGQGTQVTVSS	high polyreactivity
QVQLVESGGGLVQAGGSLRLSCAASGRTFYSYAMGWYRQAPGKERELVATITNGDTTNYADSVKGRFTISRDNAKNTVYLQMNSLKPEDTAVYYCAKDISPGYDEYDYWGQGTQVTVSS	low polyreactivity
QVQLVESGGGLVQAGGSLRLSCAASGRTFYTNAMGWYRQAPGKERELSTNYADSVKGRFTISRDNAKNTVYLQMNSLKPEDTAVYYCNADGFLRFAGFDYWGQGTQVTVSS	low polyreactivity
QVQLVESGGGLVQAGGSLRLSCAASGRTFYTNAMGWYRQARGKERELVAGISWGDGNTYYADSVKWRFTISRDNAKNTVYLQMNSLKPEDTALYYCAVTYIILWSYSHTEFDYWGQGNQVTVSS	low polyreactivity
QVQLVESGGGLVQAGGSLRLSCAASGRTFYTYAMGWYRQAPGKEREFVAAIDWSGGTTYYADSVKGRFTISRDNAKNTVFLQINSLKPEDTAVYYCAADDSFYRQYYYRAHGDYWGQGYQVTVSS	low polyreactivity
QVQLVESGGGLVQAGGSLRLSCAASGRTFYVNARGWYREAPGKERELVATISRGTRTYYADSVKGRFTISRDNAKNTVYLQMNSLIPEDTAVYYCAADARPYESPYYYWGQGTQVTVSS	high polyreactivity
QVQLVESGGGLVQAGGSLRLSCAASGRTFYVNTMGWYRQAPGKEREFVAAISYSGGRTYYADSVKGRFTISRDNAKNTVYLQMNSLKPEDTAVYYCATRINSWSAYTKYDYWGQGTQVTVSS	high polyreactivity
QVQLVESGGGLVQAGGSLRLSCAASGRTFYVNTMGWYRQAPGKEREFVAAITWRDGSTYYADSVKGRFTISRDNAKNTVYLQMNSLKPEDTAVYYCAARNSHDGYYDEYYYWGQGTQVTVSS	low polyreactivity
QVQLVESGGGLVQAGGSLRLSCAASGRTFYVYAMGWYRQAPGKERELVAAITKNGGNTYYADSVKGRFTISRDNAKNTVYLQMNSLKPEDTAVYYCAADKQGFLISYTGYDYWGQGTQVTVSS	low polyreactivity
QVQLVESGGGLVQAGGSLRLSCAASGRTFYVYTMGLYRQAPGKELELVAAISSSGGSTYYADSVKGRFTISRDNAKNTVYLQMNSLKPEDTAVYYCNSQWSLTRYGYWGQGTQVTVSS	high polyreactivity
QVQLVESGGGLVQAGGSLRLSCAASGRTFYVYVMGWYRQAPGKEREFVAAINYGSTYYADSVKGRFTISRDNAKNTVYLQMNSLKPEDTAVYYCATRSGYDSVYYFYTLWYYYWGHGTQVTVSS	low polyreactivity
QVQLVESGGGLVQAGGSLRLSCAASGRTFYWYALGWYRQAPGKERELVAAITKSGGSTYYADSVKGRFTISRDNAKNTVYLQMNSLKPEDTAVYYWAARYLYLLYYWGQGTQVTVSS	high polyreactivity
